According to article PMC11830813:

Target: Fc-tagged CD147 (UniProt P35613)
UniProt P35613, sequence (P35613 138-325): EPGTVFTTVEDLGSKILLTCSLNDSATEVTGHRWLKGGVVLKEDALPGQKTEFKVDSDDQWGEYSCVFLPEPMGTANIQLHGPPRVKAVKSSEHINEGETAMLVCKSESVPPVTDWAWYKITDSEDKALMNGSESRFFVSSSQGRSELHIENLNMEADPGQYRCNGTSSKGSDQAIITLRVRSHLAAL

## recombinant human cyclophilin B (from UniProt P23284 34-216) (natural protein)
  SARS-CoV-2 uptake by human monocytes (N protein RNA by RT-qPCR, 24 hpi) after pretreatment with recombinant human CypA and CypB together (each 10 µg/ml) as a decoy; CD147 endogenous on the monocytes (fold decrease): 2.7
